Positions count from the first letter of the chain named. One block for each binder: values may come before it.
Experiments:
[1] = molecular target: T1, human CEACAM7 (R&D Systems catalog #9010-CM-050) (human, UniProt Q14002 36-242, limits assumed); experiment: SPR
T1 sequence (looked up): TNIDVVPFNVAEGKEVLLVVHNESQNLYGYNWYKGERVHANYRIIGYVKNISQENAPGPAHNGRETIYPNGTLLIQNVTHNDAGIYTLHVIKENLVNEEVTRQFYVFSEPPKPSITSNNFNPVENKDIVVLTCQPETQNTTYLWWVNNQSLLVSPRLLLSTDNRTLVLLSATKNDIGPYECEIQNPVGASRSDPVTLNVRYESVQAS

[2] = molecular target: T2, human CEACAM8 (R&D Systems catalog #9639-CM-050) (human, UniProt P31997 35-320, limits assumed); experiment: SPR
T2 sequence (looked up): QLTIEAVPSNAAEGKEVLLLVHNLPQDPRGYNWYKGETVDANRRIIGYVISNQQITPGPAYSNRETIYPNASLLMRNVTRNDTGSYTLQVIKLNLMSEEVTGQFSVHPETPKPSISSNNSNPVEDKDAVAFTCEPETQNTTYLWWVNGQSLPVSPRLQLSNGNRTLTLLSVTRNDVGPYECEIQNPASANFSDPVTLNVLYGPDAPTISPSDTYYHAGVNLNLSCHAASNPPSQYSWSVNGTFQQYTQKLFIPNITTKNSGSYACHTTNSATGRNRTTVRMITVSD

human CEACAM5 on cells [3] = molecular target: T3, human CEACAM5 on cells (human, UniProt P06731 35-685); experiment: cell-based or functional assay
T3 sequence: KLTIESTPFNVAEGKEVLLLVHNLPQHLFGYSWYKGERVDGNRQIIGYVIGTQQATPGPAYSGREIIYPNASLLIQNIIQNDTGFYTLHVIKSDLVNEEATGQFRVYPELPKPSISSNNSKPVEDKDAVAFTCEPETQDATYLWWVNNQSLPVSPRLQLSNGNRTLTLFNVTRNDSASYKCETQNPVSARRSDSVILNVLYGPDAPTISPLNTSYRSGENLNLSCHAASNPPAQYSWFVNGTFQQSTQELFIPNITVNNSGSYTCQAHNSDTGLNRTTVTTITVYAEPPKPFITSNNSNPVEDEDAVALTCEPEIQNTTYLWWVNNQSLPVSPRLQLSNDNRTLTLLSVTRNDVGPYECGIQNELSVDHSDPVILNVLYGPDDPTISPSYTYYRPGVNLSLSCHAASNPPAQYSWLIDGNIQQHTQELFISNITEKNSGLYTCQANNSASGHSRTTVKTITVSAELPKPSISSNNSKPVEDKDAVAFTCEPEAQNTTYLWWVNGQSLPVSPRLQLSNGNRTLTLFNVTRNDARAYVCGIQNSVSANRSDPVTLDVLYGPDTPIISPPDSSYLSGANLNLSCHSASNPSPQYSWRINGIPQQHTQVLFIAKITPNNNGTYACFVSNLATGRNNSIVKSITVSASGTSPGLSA

human CEACAM5 on cells [4] = molecular target: T3, human CEACAM5 on cells; experiment: FACS on BxPC3 cells
human CEACAM5 on cells [5] = molecular target: T3, human CEACAM5 on cells; experiment: FACS on MKN45 cells
human CEACAM5 on cells [6] = molecular target: T3, human CEACAM5 on cells; experiment: FACS on LS174T cells
[7] = molecular target: T4, human CEACAM1 on CHO-S cells (human, UniProt P13688 35-526); experiment: flow cytometry on CHO-S (CEACAM-1) cells
T4 construct: whole, on cells; also called CHO-S-huCEACAM1
T4 sequence (looked up): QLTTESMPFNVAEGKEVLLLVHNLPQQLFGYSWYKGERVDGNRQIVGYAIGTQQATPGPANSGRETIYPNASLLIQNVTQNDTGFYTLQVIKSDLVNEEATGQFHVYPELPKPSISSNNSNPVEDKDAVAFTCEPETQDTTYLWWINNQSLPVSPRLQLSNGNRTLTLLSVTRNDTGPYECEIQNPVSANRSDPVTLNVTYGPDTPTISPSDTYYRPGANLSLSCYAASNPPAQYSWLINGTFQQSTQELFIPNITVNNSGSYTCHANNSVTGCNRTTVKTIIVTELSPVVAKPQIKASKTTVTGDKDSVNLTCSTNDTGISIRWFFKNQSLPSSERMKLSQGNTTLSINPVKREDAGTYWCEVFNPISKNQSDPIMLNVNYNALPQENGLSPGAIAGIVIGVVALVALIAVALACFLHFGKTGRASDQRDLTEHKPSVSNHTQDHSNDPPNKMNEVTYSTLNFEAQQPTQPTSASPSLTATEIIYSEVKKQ

[8] = molecular target: T5, human CEACAM6 on HCT116 cells (human, UniProt P40199 35-320); experiment: flow cytometry on HCT-116 (CEACAM-6) cells
T5 construct: whole, on cells; also called HCT116-huCEACAM6
T5 sequence (looked up): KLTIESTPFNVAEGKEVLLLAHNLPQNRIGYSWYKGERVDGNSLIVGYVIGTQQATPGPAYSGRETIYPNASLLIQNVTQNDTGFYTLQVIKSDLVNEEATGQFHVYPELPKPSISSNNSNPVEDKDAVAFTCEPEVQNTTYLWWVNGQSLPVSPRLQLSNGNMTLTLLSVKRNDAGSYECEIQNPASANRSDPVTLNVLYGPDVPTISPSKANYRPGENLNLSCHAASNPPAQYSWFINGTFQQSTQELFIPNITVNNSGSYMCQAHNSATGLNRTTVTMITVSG

[9] = molecular target: T6, full-length human CEACAM5 (recombinant, internally generated) (human, UniProt P06731 35-685, limits assumed); experiment: SPR Biacore, mAb captured on anti-human Fc, full-length antigen analyte, 1:1 fit
T6 construct: Printed only as 'full-length'; also called Full-length huCEACAM5; biotinylated human CEACAM5
T6 sequence: T3 sequence
Text: The BIACORE® instrument was primed with 1×HBSP+ running buffer (Cytiva catalog no. BR100671). The CM5 chip (Cytiva catalog no. 29149604) was equilibrated to room temperature, and the BIACORE® instrument was re-primed. A human antibody Fc capture kit (Cytiva catalog no. 29234600) was utilized for this analysis. The human antibody Fc capture reagent was immobilized to both flow cells in all 8 flow channels of the CM5 chip via amine-coupling using the following conditions. Immobilization was performed at a temperature of 25° C. The anti-human Fc capture reagent was diluted to a concentration of 25 μg/mL in acetate pH5 buffer. The chip surface was activated by injecting a mixture of 1-ethyl-3-(-3-dimethylaminopropyl) carbodiimide hydrochloride (EDC) and N-hydroxy succinimide (NHS) for 420 seconds at a rate of 10 microliters per minute (uL/min). A concentration (25 ug/mL) of anti-human Fc capture reagent was then injected on the surface for 420 seconds at a rate of 10 uL/min. The remaining chip surface was blocked by injecting ethanolamine for 420 seconds at a rate of 10 uL/min.
The SPR kinetics against full-length human and cyno CEACAM5 were set up as follows. The antibody capture was performed by diluting the antibodies to a concentration of 10 nM in HBSP+ buffer. The 10 nM mAbs were captured for 20 seconds at 5 uL/min to achieve capture levels of approximately 100 RU. […] The association rate was 180 seconds at 30 uL/min. The dissociation rate was 600 seconds at 30 uL/min. Regeneration was performed using two injections of 3M magnesium chloride MgCl₂ for 30 seconds at 30 uL/min. A data fit was performed using a 1:1 binding model with global Rmax. Rmax reflects the maximal response when all ligand is occupied.

B2: MBP004 (antibody, V domains shown)
VH: QVQLVESGGGVVQPGRSLRLSCAASGITFSSHGMHWVRQAPGKGLEWVTFISYDGSYKSYVDSVKGRFTISRDNSKNTLYLQMNSLRAEDTAVYYCATGLTGTGAFDIWGQGTMVTVSS
VL: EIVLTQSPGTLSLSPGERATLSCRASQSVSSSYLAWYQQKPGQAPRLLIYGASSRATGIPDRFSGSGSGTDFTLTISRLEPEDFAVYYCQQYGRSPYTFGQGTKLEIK
Ls174T 5-day cytotoxicity (AUC) (human CEACAM5 on cells [3]): 865
MKN45 5-day cytotoxicity (AUC) (human CEACAM5 on cells [3]): 2380
Kd [9]: 17.3 nM
koff [9]: 0.00131 s⁻¹
kon [9]: 76000 M⁻¹ s⁻¹

B4: MBP009 (antibody, IgG1, V domains shown)
VH: B2 VH with T28Y
VL: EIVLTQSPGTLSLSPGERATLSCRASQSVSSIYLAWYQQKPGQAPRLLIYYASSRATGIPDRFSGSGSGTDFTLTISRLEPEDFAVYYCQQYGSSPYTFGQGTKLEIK
Ls174T 5-day cytotoxicity (AUC) (human CEACAM5 on cells [3]): 1040
MKN45 5-day cytotoxicity (AUC) (human CEACAM5 on cells [3]): 2200
Kd [9]: 2.78 nM
koff [9]: 0.00048 s⁻¹
kon [9]: 172000 M⁻¹ s⁻¹

B5: MBP007 (antibody, IgG1, V domains shown)
VH: B2 VH with T28Y, F106N
VL: EIVLTQSPGTLSLSPGERATLSCRASQSVSSSYLAWYQQKPGQAPRLLIYGASSRATGIPDRFSGSGSGTDFTLTISRLEPEDFAVYYCQQNKPSPYTFGQGTKLEIK
Ls174T 5-day cytotoxicity (AUC) (human CEACAM5 on cells [3]): 834
MKN45 5-day cytotoxicity (AUC) (human CEACAM5 on cells [3]): 2070
Kd [9]: 21.5 nM
koff [9]: 0.00171 s⁻¹
kon [9]: 79600 M⁻¹ s⁻¹

B6: MBP005 (antibody, V domains shown)
VH: B2 VH with T28Y
VL: not shown
Ls174T 5-day cytotoxicity (AUC) (human CEACAM5 on cells [3]): 964
MKN45 5-day cytotoxicity (AUC) (human CEACAM5 on cells [3]): 2350

B7: MBP008 (antibody, IgG1, V domains shown)
VH: B2 VH with G104N, F106L
VL: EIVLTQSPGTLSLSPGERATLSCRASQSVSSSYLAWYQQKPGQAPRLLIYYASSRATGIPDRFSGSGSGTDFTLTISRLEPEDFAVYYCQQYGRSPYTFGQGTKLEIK
Ls174T 5-day cytotoxicity (AUC) (human CEACAM5 on cells [3]): 1140
MKN45 5-day cytotoxicity (AUC) (human CEACAM5 on cells [3]): 2200
Kd [9]: 5.91 nM
koff [9]: 0.000527 s⁻¹
kon [9]: 89200 M⁻¹ s⁻¹

B8: MBP002 (antibody, IgG1, V domains shown)
VH: B2 VH with G104N, F106L
VL: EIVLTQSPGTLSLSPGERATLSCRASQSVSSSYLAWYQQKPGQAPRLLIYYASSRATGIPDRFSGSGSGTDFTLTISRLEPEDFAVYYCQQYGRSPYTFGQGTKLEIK
notes: also called hIgG1 form of MBP008
binding result [1]: no binding
binding result [2]: no binding
Ls174T 5-day cytotoxicity (AUC), antibody conjugated to Compound A' (human CEACAM5 on cells [3]): 18900
MKN45 5-day cytotoxicity (AUC), antibody conjugated to Compound A' (human CEACAM5 on cells [3]): 24100
EC50 (human CEACAM5 on cells [4]): 1.9 nM
EC50 (human CEACAM5 on cells [5]): 2.1 nM
EC50 (human CEACAM5 on cells [6]): 1.5 nM
binding result [7]: no binding (tested: 300 nM)
binding result [8]: no binding (tested: 300 nM)
Kd [9]: 5.26 nM
koff [9]: 0.000228 s⁻¹
kon [9]: 43300 M⁻¹ s⁻¹

Continued, in another order:

binding result [1]: no binding
binding result [2]: no binding
EC50 (human CEACAM5 on cells [4]): 1.9 nM
EC50 (human CEACAM5 on cells [5]): 2.4 nM
EC50 (human CEACAM5 on cells [6]): 1.7 nM
binding result [7]: no binding (tested: 300 nM)
binding result [8]: no binding (tested: 300 nM)
Kd [9]: 23.4 nM
koff [9]: 0.000982 s⁻¹
kon [9]: 42000 M⁻¹ s⁻¹
B1: MBP003 (antibody, V domains shown)
VH: B2 VH
VL: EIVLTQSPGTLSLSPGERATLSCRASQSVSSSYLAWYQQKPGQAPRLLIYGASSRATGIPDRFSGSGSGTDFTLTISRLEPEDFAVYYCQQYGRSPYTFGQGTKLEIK
notes: also called hIgG1 form of MBP004
Ls174T 5-day cytotoxicity (AUC), antibody conjugated to Compound A' (human CEACAM5 on cells [3]): 18500
MKN45 5-day cytotoxicity (AUC), antibody conjugated to Compound A' (human CEACAM5 on cells [3]): 24400

Kd [9]: 14.2 nM
koff [9]: 0.000671 s⁻¹
kon [9]: 47100 M⁻¹ s⁻¹
B3: MBP011 (antibody, IgG1, V domains shown)
VH: B2 VH with Y57I
VL: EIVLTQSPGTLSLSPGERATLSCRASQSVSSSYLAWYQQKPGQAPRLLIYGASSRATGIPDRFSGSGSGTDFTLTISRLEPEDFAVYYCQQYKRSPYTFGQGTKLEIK
Ls174T 5-day cytotoxicity (AUC) (human CEACAM5 on cells [3]): 939
MKN45 5-day cytotoxicity (AUC) (human CEACAM5 on cells [3]): 1770

Kd [9]: 6.03 nM
koff [9]: 0.000513 s⁻¹
kon [9]: 85100 M⁻¹ s⁻¹
B9: MBP006 (antibody, V domains shown)
VH: B2 VH with K58I, F106N
VL: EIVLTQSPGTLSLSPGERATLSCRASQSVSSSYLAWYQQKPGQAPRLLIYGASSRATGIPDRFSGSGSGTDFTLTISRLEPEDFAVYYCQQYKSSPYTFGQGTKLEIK
Ls174T 5-day cytotoxicity (AUC) (human CEACAM5 on cells [3]): 902
MKN45 5-day cytotoxicity (AUC) (human CEACAM5 on cells [3]): 2440

Kd [9]: 20.4 nM
koff [9]: 0.00102 s⁻¹
kon [9]: 50000 M⁻¹ s⁻¹
B10: MBP010 (antibody, IgG1, V domains shown)
VH: B2 VH with G55S
VL: B5 VL with P94R
Ls174T 5-day cytotoxicity (AUC) (human CEACAM5 on cells [3]): 910
MKN45 5-day cytotoxicity (AUC) (human CEACAM5 on cells [3]): 1360
